Here are results for five molecules from patent publication US20210403527A1 (Regeneron, published 2021).

Assay in all cases: cell-based or functional assay
For assay [1], the target named is HLA-A2/NY-ESO-1 (157-165) complex on cells (human).
For assay [2], the target named is single chain HLA-A2 presenting an NY-ESO-1 (157-165) peptide, overexpressed on IM9 cells.
Assay [3] addresses HLA-A2/NY-ESO-1 (157-165) complex on cells (human). This is another data set of the same source.

B1: TCR188 (TCR, V domains shown)
V domain 1: DAKTTQPNSMESNEEEPVHLPCNHSTISGTDYIHWYRQLPSQGPEYVIHGLTSNVNNRMASLAIAEDRKSSTLILHRATLRDAAVYYCILNTGTASKLTFGTGTRLQVTL
V domain 2: GAVVSQHPSWVICKSGTSVKIECRSLDFQATTMFWYRQFPKQSLMLMATSNEGSKATYEQGVEKDKFLINHASLTLSTLTVTSAHPEDSSFYICSAKEGTEAFFGQGTRLTVV
As for B1, the “Signal to Noise (S/N) ratio (RLU to peptide pulsed APCs divided by RLU to non-pulsed APCs), AP-1 luciferase reporter T cells” value in assay [1] was 5.1 ratio.

B2: TCR063 (TCR, V domains shown)
V domain 1: QKEVEQNSGPLSVPEGAIASLNCTYSDRGSQSFFWYRQYSGKSPELIMSIYSNGDKEDGRFTAQLNKASQYVSLLIRDSQPSDSATYLCAVNILASGGSYIPTFGRGTSLIVHP
V domain 2: ETGVTQTPRHLVMGMTNKKSLKCEQHLGHNAMYWYKQSAKKPLELMFVYNFKEQTENNSVPSRFSPECPNSSHLFLHLHTLQPEDSALYLCASSHGTGYNYGYTFGSGTRLTVV
In the case of B2, the “Signal to Noise (S/N) ratio (RLU to peptide pulsed APCs divided by RLU to non-pulsed APCs), AP-1 luciferase reporter T cells” value in assay [1] came to 11.2 ratio.

B3: composite TCR 001 (human variable domains, mouse constant domains) (TCR, V domains shown)
V domain 1: DAKTTQPNSMESNEEEPVHLPCNHSTISGTDYIHWYRQLPSQGPEYVIHGLTSNVNNRMASLAIAEDRKSSTLILHRATLRDAAVYYCILRPDSWGKFQFGAGTQVVVTP
V domain 2: NAGVTQTPKFRILKIGQSMTLQCAQDMNHNYMYWYRQDPGMGLKLIYYSVGAGITDKGEVPNGYNVSRSTTEYFPLRLELAAPSQTSVYFCASSYSGGSPLHFGNGTRLTVTE
For B3, in assay [2], the “percent cytotoxicity (calcein release), IM-9++ target cells, T cell:target cell ratio 0.78, Mean” value was 13.3%; the “percent cytotoxicity (calcein release), IM-9++ target cells, T cell:target cell ratio 1.56, Mean” value was 25.6%; the “percent cytotoxicity (calcein release), IM-9++ target cells, T cell:target cell ratio 3.125, Mean” value is 43.6%; the “percent cytotoxicity (calcein release), IM-9++ target cells, T cell:target cell ratio 6.25, Mean” value was 57.3%. Moreover, in assay [2], the “percent cytotoxicity (calcein release), IM-9++ target cells, T cell:target cell ratio 12.5, Mean” value was 65.9%; the “percent cytotoxicity (calcein release), IM-9++ target cells, T cell:target cell ratio 25, Mean” value is 68.7%; the “percent cytotoxicity (calcein release), IM-9++ target cells, T cell:target cell ratio 50, Mean” value was 70%. Moreover, in assay [3], the “percent cytotoxicity (calcein release), IM-9 target cells, T cell:target cell ratio 0.78, Mean” value was 8.3%; the “percent cytotoxicity (calcein release), IM-9 target cells, T cell:target cell ratio 1.56, Mean” value was 16.2%; the “percent cytotoxicity (calcein release), IM-9 target cells, T cell:target cell ratio 3.125, Mean” value is 28.9%; the “percent cytotoxicity (calcein release), IM-9 target cells, T cell:target cell ratio 6.25, Mean” value is 44.4%. In assay [3], the “percent cytotoxicity (calcein release), IM-9 target cells, T cell:target cell ratio 12.5, Mean” value is 55.6%; the “percent cytotoxicity (calcein release), IM-9 target cells, T cell:target cell ratio 25, Mean” value is 65.4%; the “percent cytotoxicity (calcein release), IM-9 target cells, T cell:target cell ratio 50, Mean” value was 72.6%.

B4: TCR001 (TCR, V domains shown)
V domain 1: DAKTTQPNSMESNEEEPVHLPCNHSTISGTDYIHWYRQLPSQGPEYVIHGLTSNVNNRMASLAIAEDRKSSTLILHRATLRDAAVYYCILRPDSWGKFQFGAGTQVVVTP
V domain 2: NAGVTQTPKFRILKIGQSMTLQCAQDMNHNYMYWYRQDPGMGLKLIYYSVGAGITDKGEVPNGYNVSRSTTEYFPLRLELAAPSQTSVYFCASSYSGGSPLHFGNGTRLTVT
As to B4, the “Signal to Noise (S/N) ratio (RLU to peptide pulsed APCs divided by RLU to non-pulsed APCs), AP-1 luciferase reporter T cells” value in assay [1] stood at 25.4 ratio.

B5: TCR050 (TCR, V domains shown)
V domain 1: DAKTTQPNSMESNEEEPVHLPCNHSTISGTDYIHWYRQLPSQGPEYVIHGLTSNVNNRMASLAIAEDRKSSTLILHRATLRDAAVYYCILREGNNDMRFGAGTRLTVKP
V domain 2: NAGVTQTPKFRILKIGQSMTLQCAQDMNHNYMYWYRQDPGMGLKLIYYSVGAGITDKGEVPNGYNVSRSTTEYFPLRLELAAPSQTSVYFCASSWTDNQPQHFGDGTRLSIL
Take B5: the “Signal to Noise (S/N) ratio (RLU to peptide pulsed APCs divided by RLU to non-pulsed APCs), AP-1 luciferase reporter T cells” value in assay [1] was found to be 15.5 ratio.
